This note sets out measurements from patent US20180155692A1.

The target of the assay is activin-like kinase receptor 3 (ALK3) (human) (UniProt P36894). As to the kind of experiment: cell-based or functional assay.
Chain of activin-like kinase receptor 3 (ALK3) (human) (P36894 24-532): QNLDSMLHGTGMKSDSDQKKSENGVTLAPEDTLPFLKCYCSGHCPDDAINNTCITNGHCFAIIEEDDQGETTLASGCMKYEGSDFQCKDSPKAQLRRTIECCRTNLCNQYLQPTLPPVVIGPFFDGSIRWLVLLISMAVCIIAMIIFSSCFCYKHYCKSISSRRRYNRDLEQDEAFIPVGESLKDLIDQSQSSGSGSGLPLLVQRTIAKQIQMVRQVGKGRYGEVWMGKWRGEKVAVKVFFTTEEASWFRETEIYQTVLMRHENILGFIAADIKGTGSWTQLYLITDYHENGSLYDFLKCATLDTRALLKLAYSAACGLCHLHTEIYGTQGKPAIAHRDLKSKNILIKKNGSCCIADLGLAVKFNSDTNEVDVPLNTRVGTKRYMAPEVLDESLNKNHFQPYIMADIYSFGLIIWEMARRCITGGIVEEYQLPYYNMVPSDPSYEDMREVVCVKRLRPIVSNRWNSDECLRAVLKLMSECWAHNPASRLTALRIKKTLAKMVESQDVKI

Chain of Bone morphogenetic protein 7 (BMP-7) (P18075 293-431 limits assumed): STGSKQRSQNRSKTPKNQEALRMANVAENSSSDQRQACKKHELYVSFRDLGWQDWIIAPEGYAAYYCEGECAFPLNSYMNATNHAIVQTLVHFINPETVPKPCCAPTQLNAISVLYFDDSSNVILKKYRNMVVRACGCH

As to “Bone morphogenetic protein 4 (BMP-4) (from UniProt P12644 293-408) (ligand)”, the C-peptide production on hNEPT, fold vs. t=0 (n=6) stood at 198 fold.

Take “Bone morphogenetic protein 7 (BMP-7) (from UniProt P18075 293-431) (ligand)”: the BMP-7-mediated induction of C-peptide compared to t=0 (n=4), BMP-7 alone turned out to be 314 fold; the BMP-7-mediated induction of C-peptide compared to t=0 (n=4), in the presence of dorsomorphin (inhibitor of SMAD1/5/8 phosphorylation) worked out at 108 fold; the C-peptide induction on hNEPT, fold vs. t=0 (n=4, comparison with THR-123) came to 261 fold; the C-peptide production on hNEPT, fold vs. t=0 (n=6, comparison with BMP-4) amounted to 156 fold. The insulin expression by qRT-PCR in ALK3+-sorted cells vs. non-BMP-7 treated controls is 1000 fold.

Turning to THR-123 (peptide), the C-peptide induction on hNEPT, fold vs. t=0 (n=4) stood at 318 fold.
